No end group written: not given here. *: point of attachment. Biotin = O=C1N[C@H]2[C@H](CS[C@H]2CCCCC(=O)*)N1

Test [1] deals with T1, human C5aR (human, UniProt P21730 1-350).
T1 construct: On human neutrophils, on hC5aR-transfected L1.2 cells or on neutrophils of hC5aR knock-in mice; also called hC5aR; C5a receptor
T1 chain: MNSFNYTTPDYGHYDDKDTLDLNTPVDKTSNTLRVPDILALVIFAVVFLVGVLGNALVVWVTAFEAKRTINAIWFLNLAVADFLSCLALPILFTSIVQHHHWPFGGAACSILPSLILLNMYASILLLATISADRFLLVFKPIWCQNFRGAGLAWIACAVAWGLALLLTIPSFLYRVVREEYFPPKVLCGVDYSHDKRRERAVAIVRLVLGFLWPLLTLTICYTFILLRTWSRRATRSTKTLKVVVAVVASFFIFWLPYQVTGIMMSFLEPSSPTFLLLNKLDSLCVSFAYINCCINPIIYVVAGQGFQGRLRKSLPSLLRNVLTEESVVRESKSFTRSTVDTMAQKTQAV
The experiment in a line: competition with 125I-C5a (0.4 nM) for binding to human neutrophils.

Test [2] deals with T1, human C5aR. The experiment in a line: displacement of 125I-C5a from hC5aR on hC5aR-transfected L1.2 cells. On the technique in general: Loss of bound radioactivity is the signal in a displacement assay; it reports binding, not function.
For test [3], the target named is T2, Biotinylated Human C5aR Peptide (2nd loop), peptide 23 (human, N-terminal biotin).
T2 construct: immobilised on a streptavidin sensor chip for BIACore; also called Biotinylated-Peptide 23; Biot-peptide
T2 peptide: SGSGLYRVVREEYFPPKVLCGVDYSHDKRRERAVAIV
Nature of the test: SPR (BIACore), biotinylated peptide 23 on SA chip; experiment 1. On the technique in general: Surface plasmon resonance follows binding to a sensor surface in real time, without labels.

Test [4] concerns the target T2, Biotinylated Human C5aR Peptide (2nd …). The experiment in a line: SPR (BIACore 2000), biotinylated peptide 23 on SA chip, mAb as analyte.
Test [5] shares this target. Nature of the test: SPR (BIACore), biotinylated peptide 23 on SA chip; experiment 3 (25 nM-0.78 nM, 5 min dissociation).
Test [6] has the same target. Nature of the test: SPR (BIACore), biotinylated peptide 23 on SA chip; experiment 2 (100 nM-0.78 nM, 20 min dissociation). The protocol: (§1) Additional BIACore analyses were performed to compare binding affinities of antibodies 7F3 and 3C5 to peptide 23 under varying conditions. The conditions for these additional BIAcore experiments were as described above under “Experimental Details” with the following modifications: [0295] Experiment 2: Antibody concentrations included in kinetic analysis—100 nM-0.78 nM; 20 min dissociation. [0296] Experiment 3: Antibody concentrations included in kinetic analysis—7F3: 25 nM-0.78 nM,; 3C5: 6.25nM-0.78nM; 5 min dissociation. [0297] Experiment 4: Antibody concentrations included in kinetic analysis—7F3: 25 nM-1.56 nM,; 3C5: 6.25 nM-0.4 nM; 1 min association, 3 min dissociation.

Test [7] has the same target. Nature of the test: SPR (BIACore), biotinylated peptide 23 on SA chip; experiment 4 (25 nM-1.56 nM, 1 min association, 3 min dissociation).
For test [8], the target named is T3, 12-mer peptide VREEYFPPKVLC of the human C5aR second extracellular loop (human).
T3 construct: Parent peptide of the alanine scan; each mutant has one residue replaced by alanine
T3 peptide: Biotin-GSGSVREEYFPPKVLC
The experiment in a line: peptide ELISA, biotinylated peptide on streptavidin-coated plates [b]. The method, then:
Streptavidin-coated microtiter plates (NUNC) were coated with 10 μg/ml of peptide/well in a volume of 200 μl, and incubated at 4° C. overnight. Plates were washed three times with ELISA wash buffer (0.05% Tween 20 in PBS). MAbs were added at 2.5 μg/ml, and plates were incubated for 3 hrs at room temperature. HRP-conjugated rabbit anti-mouse IgG antibody diluted 1:1000 in ELISA wash buffer was used for detection. Plates were developed using TMB (3,3′,5,5′ tetramethyl benzidine, SIGMA) and read at […].
A general note: In an ELISA, binding on a coated surface is turned into a signal by an enzyme label.

In test [9] the target is T1, human C5aR. Nature of the test: competitive 125I-C5a ligand binding to hC5aR on human neutrophils; blocked ligand human C5a; 3 experiments; the table's column has no unit, nM is that of the axis Log Conc (nM). The protocol: (§2) Human neutrophils were washed and re-suspended in binding buffer (50 mM HEPES, pH7.5, 1 mM CaCl2, 5 mM MgCl2, and 0.5% BSA) at 1×10⁷/ml. For each binding reaction (in a final volume of 120 μl), 40 μl cell suspension (4×10⁵ cells) with an appropriate amount of anti-hC5aR mAb, isotype matched control mAb or unlabelled human C5a (SIGMA) was incubated at room temperature for 15 min. ¹²⁵I-labelled human C5a (Perkin Elmer) was added at a final concentration of 0.4 nM and the reactions were incubated at room temperature for 60 min. Cells were then collected and washed 3 times with binding buffer containing 150 mM NaCl. Cells were then transferred to Opti plates (Perkin Elmer) with MicroScint 20 scintillation fluid and radioactivity counted on TopCount (Packard). Each sample was assayed in triplicate.
(§3) Further competitive ligand binding studies were conducted to measure ¹²⁵I-C5a displacement from hC5aR on hC5aR-transfected L1.2 cells with 7F3 or 3C5.

Test [10] has as its target T2, Biotinylated Human C5aR Peptide (2nd …). Nature of the test: SPR (BIACore), biotinylated peptide 23 on SA chip; reference 7F3.
In test [11] the target is T1, human C5aR. The experiment in a line: competition with 125I-C5a (0.4 nM) for binding to human neutrophils; human neutrophils. The protocol: as §2, §3
Test [12] concerns the target T1, human C5aR. The experiment in a line: displacement of 125I-C5a from hC5aR on hC5aR-transfected L1.2 cells; hC5aR-transfected L1.2 cells.
The target in test [13] is T2, Biotinylated Human C5aR Peptide (2nd …). The experiment in a line: SPR (BIACore), biotinylated peptide 23 on SA chip; experiment 3 (6.25 nM-0.78 nM, 5 min dissociation). The method, then: as §1
Test [14] has the same target. The experiment in a line: SPR (BIACore), biotinylated peptide 23 on SA chip; experiment 4 (6.25 nM-0.4 nM, 1 min association, 3 min dissociation). The protocol: as §1

B1: MAb 7F3 (antibody, V domains shown)
VH: QVQLQQSGPELVKPGASVKISCKASGYAFSNSWMNWVKQRPGKGLEWIGRIYPGDGDTKYNGKFKGKATLTADKSSSTAYMQLSSLTSEDSAVYFCARFLLISTVTAVDYWGQGTTLTVSS
VL: DVVMTQSPLSLPVSLGNQASISCRSSQSLVHSNGNTYLHWYLQKPGQSPKLLIYKVSNRFSGVPDRFSGSGSGTDFSLKISRVEAEDLGVYFCSQSTLVPLTFGAGTKLELK
By IC50 is commonly meant the midpoint of a concentration-inhibition curve. One may read the EC50 as the concentration needed to bring the measured effect to its halfway point. In general, Kd refers to the equilibrium constant for the complex coming apart. The term koff denotes a measure of how fast the partners let go of each other. A higher koff goes with a short-lived complex. Usually kon stands for a measure of how fast the partners come together. A lower kon goes with slow association. In [1], B1 had a half-inhibitory concentration (IC50) of 0.503 nM. Also, the EC50 in test [2] worked out at 0.48 nM. Moreover, the Ka is 5.4e+08 M⁻¹ in test [3]; 1.4e+09 M⁻¹ in [4]; 7.19e+08 M⁻¹ in [5]; 8.1e+08 M⁻¹ in [6]; 4.79e+08 M⁻¹ in [7]. In addition, the Kd in test [3] came to 1.8 nM; in test [4], 0.7 nM; in test [5], 1.39 nM; in test [6], 1.2 nM; in test [7], 2.09 nM. Besides, the off-rate constant (koff) in test [3] was determined as 0.00038 s⁻¹; in test [4] it was 0.00045 s⁻¹; in test [5] it was 0.000462 s⁻¹; in test [6], 0.00035 s⁻¹; in test [7], 0.000598 s⁻¹. For the same molecule, the kon in [3] is 210000 M⁻¹ s⁻¹; in test [4], 640000 M⁻¹ s⁻¹; in test [5], 332000 M⁻¹ s⁻¹; in test [6], 290000 M⁻¹ s⁻¹; in test [7], 286000 M⁻¹ s⁻¹.

B2: MAb 8G7 (antibody, V domains shown)
VH: DIQLQESGPGLVKPSQSLSLTCSVTGYSITSGHYWNWIRQLPGNKMEWMGHISNDGSNRYNPSLKNRISITRDTSKNQFFLKLNSVTTEDTATYYCALFYFAYASFAYWGQGTLVTVSA
VL: DVVMTQTPLSLPVSLGDQASISCRSSQSLLHSNGNTYLHWYLQKPGQSPKLLIYKVSTRFSGVPDRFSGSGSGADFTLQISRVEAEDLGVYLCSQSTHVPPTFGAGTKLVLT
notes: Mouse monoclonal antibody from a hybridoma (ECACC 06081803); also called 8G7-M6
In [4], B2 registered a Ka of 6.3e+08 M⁻¹, a Kd of 1.6 nM, a koff of 0.0059 s⁻¹ and an on-rate constant (kon) of 3.7e+06 M⁻¹ s⁻¹. Moreover, the binding result in [8] is on record as “binds”. Further, in test [9], the IC50 is 0.214 nM.

B3: MAb 7H3 (antibody, V domains shown)
VH: EVKLEESGGGLVQPGGSMKLSCVASGFTFSDAWMDWVRQSPEKGLEWVAGIRNRANNHATYYVASVKGRFTVSRDDSKSSVYLQMNSLRAEDAGIYYCTRGDGYFFDYWGQGTTLTVSS
VL: DVVLTQTPLSLSVSLGDQASISCRSGQSLVHSNGNTYLHWYLQKPGQSSKLLIYKVSNRLSGVPDRFSGSGSGTDFTLKISRVEAEDLGVYFCSQTTHVPPTFGGGTKLEIK
notes: Mouse monoclonal antibody from a hybridoma (ECACC 06081802); also called 7H3-N9
In test [4], B3 showed a Ka of 5.97e+07 M⁻¹, a Kd of 16.7 nM, an off-rate constant (koff) of 0.00995 s⁻¹ and an association rate constant (kon) of 595000 M⁻¹ s⁻¹. In test [8], the binding result was “binds”. In [9], this molecule returned an IC50 of 0.275 nM.

B4: MAb 3C5 (antibody, V domains shown)
VH: DVQLQESGPGLVKPSQSLSLTCSVTGYSITSGNYWNWIRQFPGKKLEWMGHISYDGNNKYNPSLKNRISITRDTSKNQFFLRLNSVTAEDTAAYYCALFYFDYASFTYWGQGTLVTVSA
VL: DVVMTQTPLSLPVSLGDQASISCRSSQSLVHSNGNTYLHWYLRKPGQSPKLLIYKVSNRFSGVPDRFSGSGSGTDFTLKISRVEAEDLGVYFCSQSTHVPPTFGAGTKLELK
Regarding B4, the “fold improved affinity over 7F3” value in [10] is approximately 1.5 fold. Besides, the Ka in test [3] came out at 1.3e+09 M⁻¹; in [4], 2.1e+09 M⁻¹; in test [6] it was 2.2e+09 M⁻¹; in test [13], 9.6e+08 M⁻¹; in [14], 7.16e+08 M⁻¹. The Kd was 0.76 nM in test [3]; 0.48 nM in test [4]; 0.45 nM in [6]; 1.04 nM in test [13]; 1.4 nM in test [14]. The koff in [3] came out at 0.00052 s⁻¹; in test [4] it was 0.0016 s⁻¹; in [6], 0.0007 s⁻¹; in test [13], 0.00111 s⁻¹; in [14], 0.00144 s⁻¹. In addition, the on-rate (kon) was 680000 M⁻¹ s⁻¹ in [3]; 3.3e+06 M⁻¹ s⁻¹ in test [4]; 1.5e+06 M⁻¹ s⁻¹ in test [6]; 1.06e+06 M⁻¹ s⁻¹ in test [13]; 1.03e+06 M⁻¹ s⁻¹ in [14]. The IC50 in [11] was determined as 0.171 nM. This molecule returned an EC50 in [12] of 0.021 nM.
